# B1: Cell division control protein 6 homolog (Homo sapiens), Q99741 (parent)
# chain: MPQTRSQAQATISFPKRKLSRALNKAKNSSDAKLEPTNVQTVTCSPRVKALPLSPRKRLGDDNLCNTPHLPPCSPPKQGKKENGPPHSHTLKGRRLVFDNQLTIKSPSKRELAKVHQNKILSSVRKSQEITTNSEQRCPLKKESACVRLFKQEGTCYQQAKLVLNTAVPDRLPAREREMDVIRNFLREHICGKKAGSLYLSGAPGTGKTACLSRILQDLKKELKGFKTIMLNCMSLRTAQAVFPAIAQEICQEEVSRPAGKDMMRKLEKHMTAEKGPMIVLVLDEMDQLDSKGQDVLYTLFEWPWLSNSHLVLIGIANTLDLTDRILPRLQAREKCKPQLLNFPPYTRNQIVTILQDRLNQVSRDQVLDNAAVQFCARKVSAVSGDVRKALDVCRRAIEIVESDVKSQTILKPLSECKSPSEPLIPKRVGLIHISQVISEVDGNRMTLSQEGAQDSFPLQQKILVCSLMLLIRQLKIKEVTLGKLYEAYSKVCRKQQVAAVDQSECLSLSGLLEARGILGLKRNKETRLTKVFFKIEEKEIEHALKDKALIGNILATGLP
# Variants of: B1
# Settings: with cdk1_human CDK1, P06493
# cdk1_human CDK1, P06493, sequence (P06493 whole entry, looked up): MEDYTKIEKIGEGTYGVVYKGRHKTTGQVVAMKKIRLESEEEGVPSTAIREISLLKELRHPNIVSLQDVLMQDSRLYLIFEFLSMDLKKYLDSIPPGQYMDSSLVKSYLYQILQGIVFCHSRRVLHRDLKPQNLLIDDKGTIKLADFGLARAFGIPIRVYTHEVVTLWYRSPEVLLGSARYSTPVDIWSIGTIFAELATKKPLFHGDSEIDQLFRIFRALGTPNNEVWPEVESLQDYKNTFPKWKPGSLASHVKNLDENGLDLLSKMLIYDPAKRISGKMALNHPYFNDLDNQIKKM
row,effect of a mutation on the interaction,Variant
1,disrupting interaction,T37V

# Variants of: B1
# Settings: with plk1_human PLK1, P53350
# plk1_human PLK1, P53350, sequence (P53350 whole entry): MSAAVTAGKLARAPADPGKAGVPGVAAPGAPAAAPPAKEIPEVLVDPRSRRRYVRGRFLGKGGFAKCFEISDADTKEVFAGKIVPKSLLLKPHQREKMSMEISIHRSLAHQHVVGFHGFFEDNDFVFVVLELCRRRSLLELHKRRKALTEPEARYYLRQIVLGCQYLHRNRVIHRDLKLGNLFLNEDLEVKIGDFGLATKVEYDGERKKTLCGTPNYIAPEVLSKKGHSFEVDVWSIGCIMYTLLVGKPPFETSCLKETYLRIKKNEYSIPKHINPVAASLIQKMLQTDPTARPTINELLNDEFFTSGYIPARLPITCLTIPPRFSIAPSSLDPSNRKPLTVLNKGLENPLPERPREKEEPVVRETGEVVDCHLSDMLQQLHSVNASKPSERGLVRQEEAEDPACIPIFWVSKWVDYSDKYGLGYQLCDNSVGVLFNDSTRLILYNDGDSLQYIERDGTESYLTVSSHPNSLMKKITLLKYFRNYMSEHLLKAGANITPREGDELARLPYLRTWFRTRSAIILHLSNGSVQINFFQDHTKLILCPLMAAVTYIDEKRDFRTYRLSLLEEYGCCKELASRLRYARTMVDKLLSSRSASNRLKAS
row,effect of a mutation on the interaction,Variant
1,disrupting interaction,T37V

# Source: IntAct's records for PubMed 21041660
